Results published in article PMC7804152, “Structural basis for the multi-activity factor Rad5 in replication stress tolerance”.

Key:
[1] = target: T1, ScHIRAN (Saccharomyces cerevisiae, UniProt P32849 171-375); assay: EMSA; FP: 20 mM Tris pH 7.5, 50 mM (dsDNA, KlHIRAN) or 70 mM (ssDNA) NaCl, 2 mM MgCl2, 1 nM DNA, room temp; EMSA: 20 mM Tris pH 7.5, 100 mM KCl, 0.5 mM DTT, 3% glycerol, 2 mM MgCl2, 250 ug/mL BSA, 4 C; pull-down: 20 mM Tris pH 7.5, 50 mM NaCl, 4 C; settings: protein: recombinant; tags: intein-CBD cleaved off; label: 5'-FAM
T1 sequence: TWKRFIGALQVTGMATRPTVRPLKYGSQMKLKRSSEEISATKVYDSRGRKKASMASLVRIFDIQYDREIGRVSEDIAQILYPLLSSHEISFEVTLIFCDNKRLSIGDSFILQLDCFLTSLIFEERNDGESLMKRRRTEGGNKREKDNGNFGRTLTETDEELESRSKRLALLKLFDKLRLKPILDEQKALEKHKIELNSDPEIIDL

[2] = target: T2, KlHIRAN (Kluyveromyces lactis, UniProt Q6CJM4 174-341); assay: as above; settings: protein: recombinant; tags: intein-CBD cleaved off; label: 5'-FAM
T2 sequence: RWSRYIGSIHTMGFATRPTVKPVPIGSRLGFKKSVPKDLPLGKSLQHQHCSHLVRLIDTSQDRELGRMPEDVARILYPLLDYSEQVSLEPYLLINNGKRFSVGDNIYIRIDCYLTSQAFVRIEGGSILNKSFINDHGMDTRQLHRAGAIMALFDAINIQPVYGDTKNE

[3] = target: T3, HsHIRAN (Homo sapiens, UniProt Q14527 55-180); assay: EMSA; strong preference for free 3'-OH; FP: 20 mM Tris pH 7.5, 50 mM (dsDNA, KlHIRAN) or 70 mM (ssDNA) NaCl, 2 mM MgCl2, 1 nM DNA, room temp; EMSA: 20 mM Tris pH 7.5, 100 mM KCl, 0.5 mM DTT, 3% glycerol, 2 mM MgCl2, 250 ug/mL BSA, 4 C; pull-down: 20 mM Tris pH 7.5, 50 mM NaCl, 4 C; settings: protein: recombinant; tags: His (pET28a), HA; label: 5'-FAM
T3 sequence: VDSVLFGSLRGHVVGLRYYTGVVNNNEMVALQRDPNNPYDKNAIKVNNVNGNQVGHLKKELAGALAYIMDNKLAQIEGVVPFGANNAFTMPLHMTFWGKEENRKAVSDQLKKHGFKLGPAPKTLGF

[4] = target: T4, His-KlRad5 (Kluyveromyces lactis, UniProt Q6CJM4 163-1114); assay: fluorescence polarization; FP: 20 mM Tris pH 7.5, 50 mM (dsDNA, KlHIRAN) or 70 mM (ssDNA) NaCl, 2 mM MgCl2, 1 nM DNA, room temp; EMSA: 20 mM Tris pH 7.5, 100 mM KCl, 0.5 mM DTT, 3% glycerol, 2 mM MgCl2, 250 ug/mL BSA, 4 C; pull-down: 20 mM Tris pH 7.5, 50 mM NaCl, 4 C; settings: protein: recombinant; tags: N-terminal His6; label: 5'-FAM
T4 sequence: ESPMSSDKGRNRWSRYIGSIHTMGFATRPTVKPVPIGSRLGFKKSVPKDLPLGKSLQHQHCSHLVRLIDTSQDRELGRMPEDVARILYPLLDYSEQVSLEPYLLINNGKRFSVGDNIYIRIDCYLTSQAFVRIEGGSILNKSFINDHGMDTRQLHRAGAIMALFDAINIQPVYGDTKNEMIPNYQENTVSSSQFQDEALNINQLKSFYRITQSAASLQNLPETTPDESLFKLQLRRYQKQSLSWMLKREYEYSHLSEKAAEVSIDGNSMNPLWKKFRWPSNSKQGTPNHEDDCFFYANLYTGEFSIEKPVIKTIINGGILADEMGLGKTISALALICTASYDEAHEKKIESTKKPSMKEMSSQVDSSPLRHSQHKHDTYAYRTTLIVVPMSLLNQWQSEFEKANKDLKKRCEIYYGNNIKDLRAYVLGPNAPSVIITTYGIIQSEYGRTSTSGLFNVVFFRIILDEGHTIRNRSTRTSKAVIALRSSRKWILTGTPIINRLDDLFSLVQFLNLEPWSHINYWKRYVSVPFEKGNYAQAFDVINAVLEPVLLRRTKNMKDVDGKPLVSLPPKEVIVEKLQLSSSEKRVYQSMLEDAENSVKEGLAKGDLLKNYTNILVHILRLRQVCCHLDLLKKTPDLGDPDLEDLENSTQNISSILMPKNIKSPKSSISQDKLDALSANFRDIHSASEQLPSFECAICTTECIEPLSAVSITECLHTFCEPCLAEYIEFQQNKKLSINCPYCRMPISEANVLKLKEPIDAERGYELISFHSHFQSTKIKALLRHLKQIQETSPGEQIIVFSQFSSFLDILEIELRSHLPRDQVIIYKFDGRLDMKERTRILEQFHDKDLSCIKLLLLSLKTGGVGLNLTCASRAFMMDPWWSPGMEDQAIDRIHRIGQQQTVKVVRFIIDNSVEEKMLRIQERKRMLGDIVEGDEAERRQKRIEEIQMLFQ

[5] = target: T5, KlRad5 (Kluyveromyces lactis, UniProt Q6CJM4 163-1114); assay: fluorescence polarization; 70 mM NaCl; FP: 20 mM Tris pH 7.5, 50 mM (dsDNA, KlHIRAN) or 70 mM (ssDNA) NaCl, 2 mM MgCl2, 1 nM DNA, room temp; EMSA: 20 mM Tris pH 7.5, 100 mM KCl, 0.5 mM DTT, 3% glycerol, 2 mM MgCl2, 250 ug/mL BSA, 4 C; pull-down: 20 mM Tris pH 7.5, 50 mM NaCl, 4 C; settings: protein: recombinant; tags: none; label: 5'-FAM
T5 sequence: T4 sequence

[6] = target: T5, KlRad5; assay: fluorescence polarization; 70 mM NaCl; similar to 5'-FAM; FP: 20 mM Tris pH 7.5, 50 mM (dsDNA, KlHIRAN) or 70 mM (ssDNA) NaCl, 2 mM MgCl2, 1 nM DNA, room temp; EMSA: 20 mM Tris pH 7.5, 100 mM KCl, 0.5 mM DTT, 3% glycerol, 2 mM MgCl2, 250 ug/mL BSA, 4 C; pull-down: 20 mM Tris pH 7.5, 50 mM NaCl, 4 C; settings: protein: recombinant; tags: none; label: 3'-FAM

## TTTTTTTTTT (ssDNA) [dT10, 5'-FAM]
[1]
  binding result: binds
[2]
  binding result: binds
[3]
  binding result: binds

## TTTTTTTCGTCTTCGGCAATTTTTT (ssDNA) [S1 ssDNA, 5'-FAM]
[4]
  binding result: binds
[5]
  binding result: binds

## TTTTTTTCGTCTTCGGCAATTTTTT (ssDNA) [S1 ssDNA, 3'-FAM]
[6]
  binding result: binds
